The target of assay [1] is T1, human CD30 expressed on the cell surface (human, UniProt P28908 19-595).
T1 chain: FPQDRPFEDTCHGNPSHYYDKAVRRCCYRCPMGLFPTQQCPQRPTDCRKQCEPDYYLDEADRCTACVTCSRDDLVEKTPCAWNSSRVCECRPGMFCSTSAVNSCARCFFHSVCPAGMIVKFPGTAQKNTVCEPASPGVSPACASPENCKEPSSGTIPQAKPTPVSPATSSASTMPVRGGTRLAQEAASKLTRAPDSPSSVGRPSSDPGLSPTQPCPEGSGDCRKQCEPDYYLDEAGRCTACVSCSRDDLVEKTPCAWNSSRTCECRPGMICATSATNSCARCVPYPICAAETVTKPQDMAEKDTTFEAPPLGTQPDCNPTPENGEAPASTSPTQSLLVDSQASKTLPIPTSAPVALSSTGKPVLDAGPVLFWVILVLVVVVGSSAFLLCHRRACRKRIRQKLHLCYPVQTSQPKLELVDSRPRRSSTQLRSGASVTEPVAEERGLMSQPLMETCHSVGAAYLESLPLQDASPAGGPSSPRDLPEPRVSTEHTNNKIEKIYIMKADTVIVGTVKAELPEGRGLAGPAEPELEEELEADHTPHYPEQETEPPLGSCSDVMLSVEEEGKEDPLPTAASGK
The assay can be described thus: SPR; CD30 immobilized on CM5 chip, antibody as analyte.

Assay [2] concerns the target T1, human CD30 expressed on the cell surface. Described as above.
Assay [3] shares this target. The assay can be described thus: SPR; antibody immobilized on Protein G chip, CD30 as analyte.

B1: 12B1 (antibody, V domains shown)
VH: EVKLEESGTELVKPGASVKLSCKASGYTFTSYWMHWVKQRPGQGLEWIGNINPTNGGTNYNEKFKSKATLTVDKSSRTAYMQLSSLTSGDSAVYYCARRDFITTSGFAYWGQGTLVTVSA
VL: DIVMTQTTASLSTSVGETVTITCRASGNLHSYLTWYQQKQGKSPQLLVYNAKTLADGVPSRFSGSGSGTQYSLKIDSLQPEDFGSYYCQHFWTTPFTFGSGTKLEIK
In turn, B1 displayed a Ka in assay [1] of 5.02e+09 M⁻¹. In assay [2], this molecule returned a Kd of 0.199 nM.

B2: 15B8 (antibody, V domains shown)
VH: QVQLEQSGTELVKPGASVKLSCKASGYTFTSYWMHWVKQRPGQGLEWIGNINPSNGGTNYNEKFKSKATLTVDKSSSTAYMQLSSLTSEDSAIYYCARRNNYYASSPFAYWGQGTLVSVSA
VL: DIVMTQTPASLSASVGETVTITCRASGNIHNYLAWYQQKQGKSPQLLVYNAKTLADGVPSRFSGSGSGTQYSLKINSLQPEDFGSYYCQHFWSTPFTFGSGTKLEIK
On to B2, for which the Ka in assay [1] was determined as 1.02e+09 M⁻¹. The Kd in assay [2] was 0.978 nM.

B3: 13H1 (antibody, V domains shown)
VH: QVQLQQSGTELVKPGASVKLSCKASGHTFTSYWMHWVKQRPGQGLEWIGNINPSNGGTNYNEKFKSKATLTVDKSSSTAYMQLSSLTSEDSAVYYCARRGYYGSSSYWSFDVWGTGTTVTVSS
VL: DIVMTQTPKSMSMSVGERVTLSCKASENVGTYVSWYQQKPEQSPKVLIYGASNRFTGVPDRFTGSGSATDFTLTISSVQTEDLADYHCGQSYSYPLTFGAGTKLELK
Regarding B3, the Ka in assay [1] is 6.7e+09 M⁻¹. In assay [2], this molecule had a Kd of 0.149 nM.

B4: 8D10 (antibody, V domains shown)
VH: QVQLQESGTELVKPGASVKLSCKASGYTFTSYWMHWMKQRPGQGLEWIGNINPSNGGTNYNEKFKNKATLTVDKSSSTAYMQLSSLTSEDSAVYYCARRDYYYGSSYGFDVWGTGTTVTVSS
VL: DIVMTQSPASQSASLGESVTITCLASQTIGTWLAWYQQKPGKSPQFLIYAATSLADGVPSRFSGSGSGTKFSFKISSLQAEDFVSYYCQQLYSTPFTFGGGTKLEIK
B4 returned a Ka in assay [1] of 1.69e+10 M⁻¹. Also, the Kd in assay [3] turned out to be 1.14 nM; in assay [2] it was 0.0592 nM.

B5: 10C2 (antibody, V domains shown)
VH: QVQLEQSGPVLVKPGASVKMSCKASGYTFTDYYMNWVKQSHGKSLEWIGVINPYNGGTSYNQKFKGKATLTVDKSSSTACMELNCLTSEDSAVYYCTLGAYWGQGTSVTVSS
VL: not shown
Take B5: the Ka in assay [1] stood at 1.65e+09 M⁻¹. Moreover, the Kd in assay [3] came out at 1.76 nM; in assay [2] it was 0.607 nM.
